Data set [1] relates to HeLa Kyoto. In words: melting temperature (median over replicates), in situ; higher = more thermally stable.
Data set [2] has as its system HeLa Kyoto. In words: solubility change mitosis vs G1/S (difference of NP-40 vs SDS log2 ratios) (log2 ratio difference); higher = more soluble in mitosis.
In data set [3] the test system is HeLa Kyoto. In words: solubility in G1/S (NP-40 vs SDS abundance) (log2 ratio); higher = more soluble. The note with it: cell cycle stage: G1/S.
For data set [4], the system named is HeLa Kyoto. Kind of data set: thermal stability score vs G1/S (z-score of summed log2 fold changes over temperatures); higher = more thermally stable than in G1/S.
Where [5] appears, read: cell cycle stage: early G1 (4.5 h after nocodazole release).
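Wherever melting temperature (median over replicates), in situ is given: HeLa Kyoto cells synchronized by double thymidine or nocodazole block, proteins quantified by TMT10plex mass spectrometry, three independent biological replicates.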
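Wherever solubility change mitosis vs G1/S (difference of NP-40 vs SDS log2 ratios) is given: synchronized HeLa Kyoto cells (double thymidine block for G1/S, nocodazole release for mitosis), protein amounts in NP-40 versus SDS lysates quantified by mass spectrometry, three biological replicates.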
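Wherever solubility in G1/S (NP-40 vs SDS abundance) is given: HeLa Kyoto cells arrested at G1/S by double thymidine block, proteins quantified by TMT10plex mass spectrometry in mild NP-40 versus SDS extracts, three biological replicates.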
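Wherever thermal stability score vs G1/S (z-score of summed log2 fold changes over temperatures) is given: synchronized HeLa Kyoto cells, proteins quantified by TMT10plex mass spectrometry, three biological replicates, mitosis taken 0.5 h after nocodazole release, G1/S directly after double thymidine block.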

In the case of “MGGSASSQLDEGKCAYIRGKTEAAIKNFSPYYSRQYSVAFCNHVRTEVEQQRDLTSQFLKTKPPLAPGTILYEAELSQFSEDIKKWKERYVVVKNDYAVESYENKEAYQRGAAPKCRILPAGGKVLTSEDEYNLLSDRHFPDPLASSEKENTQPFVVLPKEFPVYLWQPFFRHGYFCFHEAADQKRFSALLSDCVRHLNHDYMKQMTFEAQAFLEAVQFFRQEKGHYGSWEMITGDEIQILSNLVMEELLPTLQTDLLPKMKGKKNDRKRTWLGLLEEAYTLVQHQVSEGLSALKEECRALTKGLEGTIRSDMDQIVNSKNYLIGKIKAMVAQPAEKSCLESVQPFLASILEELMGPVSSGFSEVRVLFEKEVNEVSQNFQTTKDSVQLKEHLDRLMNLPLHSVKMEPCYTKVNLLHERLQDLKSRFRFPHIDLVVQRTQNYMQELMENAVFTFEQLLSPHLQGEASKTAVAIEKVKLRVLKQYDYDSSTIRKKIFQEALVQITLPTVQKALASTCKPELQKYEQFIFADHTNMIHVENVYEEILHQILLDETLKVIKEAAILKKHNLFEDNMALPSESVSSLTDLKPPTGSNQASPARRASAILPGVLGSETLSNEVFQESEEEKQPEVPSSLAKGESLSLPGPSPPPDGTEQVIISRVDDPVVNPVATEDTAGLPGTCSSELEFGGTLEDEEPAQEEPEPITASGSLKALRKLLTASVEVPVDSAPVMEEDTNGESHVPQENEEEEEKEPSQAAAIHPDNCEESEVSEREAQPPCPEAHGEELGGFPEVGSPASPPASGGLTEEPLGPMEGELPGEACTLTAHEGRGGKCTEEGDASQQEGCTLGSDPICLSESQVSEEQEEMGGQSSAAQATASVNAEEIKVARIHECQWVVEDAPNPDVLLSHKDDVKEGEGGQESFPELPSEE [FAM129A]”, the melting temperature with HeLa Kyoto [1] (cell cycle stage: G1/S) came out at 50 °C; in the data set with HeLa Kyoto [1] (cell cycle stage: mitosis), 49.7 °C. In the data set on HeLa Kyoto [2], the “solubility change mitosis (log2)” value was -0.0907. Moreover, the “solubility in G1/S (log2)” value with HeLa Kyoto [3] was 0.169. Further, the thermal stability score in the data set on HeLa Kyoto [4] (setting [5]) amounted to 1.18; in the data set on HeLa Kyoto [4] (cell cycle stage: mitosis), 2.35.
With “MGKKGKVGKSRRDKFYHLAKETGYRSRSAFKLIQLNRRFQFLQKARALLDLCAAPGGWLQVAAKFMPVSSLIVGVDLVPIKPLPNVVTLQQDITTERCRQALRKELKTWKVDVVLNDGAPNVGASWVHDAYSQAHLTLMALRLACDFLARGGSFITKVFRSRDYQPLLWIFQQLFRRVQATKPQASRHESAEIFVVCQGFLAPDKVDSKFFDPKFAFKEVEVQAKTVTELVTKKKPKAEGYAEGDLTLYHRTSVTDFLRAANPVDFLSKASEIMVDDEELAQHPATTEDIRVCCQDIRVLGRKELRSLLNWRTKLRRYVAKKLKEQAKALDISLSSGEEDEGDEEDSTAGTTKQPSKEEEEEEEEEQLNQTLAEMKAQEVAELKRKKKKLLREQRKQRERVELKMDLPGVSIADEGETGMFSLSTIRGHQLLEEVTQGDMSAADTFLSDLPRDDIYVSDVEDDGDDTSLDSDLDPEELAGVRGHQGLRDQKRMRLTEVQDDKEEEEEENPLLVPLEEKAVLQEEQANLWFSKGSFAGIEDDADEALEISQAQLLFENRRKGRQQQQKQQLPQTPPSCLKTEIMSPLYQDEAPKGTEASSGTEAATGLEGEEKDGISDSDSSTSSEEEESWEPLRGKKRSRGPKSDDDGFEIVPIEDPAKHRILDPEGLALGAVIASSKKAKRDLIDNSFNRYTFNEDEGELPEWFVQEEKQHRIRQLPVGKKEVEHYRKRWREINARPIKKVAEAKARKKRRMLKRLEQTRKKAEAVVNTVDISEREKVAQLRSLYKKAGLGKEKRHVTYVVAKKGVGRKVRRPAGVRGHFKVVDSRMKKDQRAQQRKEQKKKHKRK [FTSJ3]”, the melting temperature in the data set on HeLa Kyoto [1] (cell cycle stage: G1/S) is 49.7 °C; in the data set on HeLa Kyoto [1] (cell cycle stage: mitosis) it was 52 °C. The “solubility change mitosis (log2)” value in the data set on HeLa Kyoto [2] is 1.11. In addition, the “solubility in G1/S (log2)” value in the data set with HeLa Kyoto [3] was -2.41. The thermal stability score amounted to 4.05 with HeLa Kyoto [4] (setting [5]) and 7.76 in the data set with HeLa Kyoto [4] (cell cycle stage: mitosis).
With “MGKSDFLTPKAIANRIKSKGLQKLRWYCQMCQKQCRDENGFKCHCMSESHQRQLLLASENPQQFMDYFSEEFRNDFLELLRRRFGTKRVHNNIVYNEYISHREHIHMNATQWETLTDFTKWLGREGLCKVDETPKGWYIQYIDRDPETIRRQLELEKKKKQDLDDEEKTAKFIEEQVRRGLEGKEQEVPTFTELSRENDEEKVTFNLSKGACSSSGATSSKSSTLGPSALKTIGSSASVKRKESSQSSTQSKEKKKKKSALDEIMEIEEEKKRTARTDYWLQPEIIVKIITKKLGEKYHKKKAIVKEVIDKYTAVVKMIDSGDKLKLDQTHLETVIPAPGKRILVLNGGYRGNEGTLESINEKTFSATIVIETGPLKGRRVEGIQYEDISKLA [KIN]”, the melting temperature in the data set with HeLa Kyoto [1] (cell cycle stage: G1/S) was found to be 51.1 °C; in the data set on HeLa Kyoto [1] (cell cycle stage: mitosis) it was 49.3 °C. Further, the “solubility change mitosis (log2)” value in the data set with HeLa Kyoto [2] was 0.174. In addition, the “solubility in G1/S (log2)” value with HeLa Kyoto [3] was -0.339. Further, the figures for the thermal stability score with HeLa Kyoto [4] (setting [5]) and in the data set with HeLa Kyoto [4] (cell cycle stage: mitosis) were 0.727 and 1.45, respectively.
As to “MGLLDLCEEVFGTADLYRVLGVRREASDGEVRRGYHKVSLQVHPDRVGEGDKEDATRRFQILGKVYSVLSDREQRAVYDEQGTVDEDSPVLTQDRDWEAYWRLLFKKISLEDIQAFEKTYKGSEEELADIKQAYLDFKGDMDQIMESVLCVQYTEEPRIRNIIQQAIDAGEVPSYNAFVKESKQKMNARKRRAQEEAKEAEMSRKELGLDEGVDSLKAAIQSRQKDRQKEMDNFLAQMEAKYCKSSKGGGKKSALKKEKK [DNAJC9]”, the melting temperature in the data set on HeLa Kyoto [1] (cell cycle stage: G1/S) worked out at 52 °C; with HeLa Kyoto [1] (cell cycle stage: mitosis), 51.8 °C. For the same sequence, in the data set on HeLa Kyoto [2], the “solubility change mitosis (log2)” value was found to be 0.21. Also, the “solubility in G1/S (log2)” value with HeLa Kyoto [3] came to 0.502. For the same sequence, the thermal stability score with HeLa Kyoto [4] (setting [5]) was -3.62; in the data set with HeLa Kyoto [4] (cell cycle stage: mitosis), -5.66.
Take “MGLLRGGLPCARAMARLGAVRSHYCALLLAAALAVCAFYYLGSGRETFSSATKRLKEARAGAPAAPSPPALELARGSVAPAPGAKAKSLEGGGAGPVDYHLLMMFTKAEHNAALQAKARVALRSLLRLAKFEAHEVLNLHFVSEEASREVAKGLLRELLPPAAGFKCKVIFHDVAVLTDKLFPIVEAMQKHFSAGLGTYYSDSIFFLSVAMHQIMPKEILQIIQLDLDLKFKTNIRELFEEFDSFLPGAIIGIAREMQPVYRHTFWQFRHENPQTRVGGPPPEGLPGFNSGVMLLNLEAMRQSPLYSRLLEPAQVQQLADKYHFRGHLGDQDFFTMIGMEHPKLFHVLDCTWNRQLCTWWRDHGYSDVFEAYFRCEGHVKIYHGNCNTPIPED [XXYLT1]”: the melting temperature with HeLa Kyoto [1] (cell cycle stage: G1/S) was determined as 54.9 °C; with HeLa Kyoto [1] (cell cycle stage: mitosis) it was 54.7 °C. Besides, in the data set with HeLa Kyoto [2], the “solubility change mitosis (log2)” value was -0.0858. Further, the “solubility in G1/S (log2)” value in the data set on HeLa Kyoto [3] was -0.0927. Besides, the values for the thermal stability score in the data set on HeLa Kyoto [4] (setting [5]) and in the data set on HeLa Kyoto [4] (cell cycle stage: mitosis) were -1.07 and -1.02, respectively.
